Assay results from the nanobody polyreactivity screen of Harvey et al. (2022).

Experiment: yeast display, Sf9 membrane polyspecificity reagent, FACS + sequencing; frameworks hold sequencing errors
How it was run: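 Genes from sorted yeast were amplified by colony PCR, read by MiSeq 2 × 250 sequencing and filtered on CDR length. These cells carried a synthetic nanobody library in Saccharomyces cerevisiae BJ5465 and were sorted by FACS into low and high (top ~1%) gates on anti-HA and streptavidin fluorescence. Polyreactivity is labelled according to the gate of origin.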
With “QVQLVESGGGLVQAGCSLRLSCAASGRIYRRYAMGWYRQAPGKERELVAAISSRGGRTYYADSVKGRITISRDNAMNTVYLQMNSLKQEDTAVYYCAARPAGYGHYKYYYWGQGTQVTVSS” the “polyreactivity (PSR sort gate)” value was “high polyreactivity”. With “QVQLVESGGGLVQAGCSLRLSCAASGRPFWYNAMGGYRQAPGNVRELVAGISGSGGSTYYADSVKGRFTISRDNAKNTVYLQMNSLKPEDTAVYYCAATTGYSRSYRYGYWGQGTQVTVSS” the “polyreactivity (PSR sort gate)” value was “high polyreactivity”. In the case of “QVQLVESGGGLVQAGCSLRLSCAASGRTFLLYAMGWYRQAPGKERELVAAITWGGGSTYYADSVKGRFTISRDNAKNIVYLQMNCLKPEDTAVYYCNAYYWSRMDYWGQGTQVTVSS”, the “polyreactivity (PSR sort gate)” value is reported as “low polyreactivity”. With “QVQLVESGGGLVQAGCSLRLSCAASGRTFVYNAMGWYRKAPGKERELVAGITGSGDSTYYADSVKGRFTISRDNAKNTVYLQMNSMKPEDTAVYYCNQLVEEDYWGQGTQVTVSS” the “polyreactivity (PSR sort gate)” value was “low polyreactivity”. For “QVQLVESGGGLVQAGCSLRLSCAASGSIFAPYAMGWYRQAPGKERELVAAISYSGGSTYYADSVKGRLTISRDNAKNTVYLQMNSLKPEDTAVYYCAARVLHQDFYKRYYWGQGTQVTVSS”, the “polyreactivity (PSR sort gate)” value was “high polyreactivity”. For “QVQLVESGGGLVQAGCSLRLSCAASGSIFDTNAKGWYRQAPGKERELVAAIYDNTGRTYYADSVKGRFTISRDNSKNTVYLQMNSQKPEDTAVYYCNAPRYYWISFARWPASYYYWGQGTQVTVSS”, the “polyreactivity (PSR sort gate)” value was “high polyreactivity”. In the case of “QVQLVESGGGLVQAGCSLRLSCAASGSIFSQSAMGWYRQAPGKERELVAAISARGTSTYYADSVKGRFTISRDNAKNTVYLQMNSLKPEDTAVYYCNTVRPYSSSSSRYYYWGQGTQVTVSS”, the “polyreactivity (PSR sort gate)” value is reported as “high polyreactivity”. With “QVQLVESGGGLVQAGCSLRLSCAASGSIFSYYDMGSYRQAPGKERELVAGISRGGSTNYADSVKGRFTISRDNAKNTVYLQMNILKPEDTAVYYCNADQSSRTYPFRLSRRSLLYGYWGLGTQVTVSS” the “polyreactivity (PSR sort gate)” value was “low polyreactivity”. With “QVQLVESGGGLVQAGCSLRLSCAASGSIFYGYAMGWYRQAPGKERELVARITGSGGDTSYADSVKGRFTISRDNAKNTVYLQMNSLKPEDTAVYYCNTDLYITYTLYTGSEYDYWGQGTQVTVSS” the “polyreactivity (PSR sort gate)” value was “low polyreactivity”. With “QVQLVESGGGLVQAGCSLRLSCAASGSIFYRNPMVWYRQAPGKERELVAAISSDGSTNYADSVKGRFTISRDNAKNTVYLQMNSLKPEDTAVYYCAAPWTQILDYWGQGTQVTVSS” the “polyreactivity (PSR sort gate)” value was “low polyreactivity”. In the case of “QVQLVESGGGLVQAGCSLRLSCAASGSILWHYAKGWYRQAPGKERELVAFISSSGSTYYADSVKGRFTISRDNAKNTVYLQMNSLKPEDTAVDYCNAYRLYSGYVPYDYWGQCTQVTVSS”, the “polyreactivity (PSR sort gate)” value is reported as “high polyreactivity”. With “QVQLVESGGGLVQAGCSLRLSCAASGSIYPYAMGCYRQAPGKESELVAAINFNGGRTYYAHSVNGRFTISRDNAKNTVYLQMTSLKPDVTAFYYCAARISVYSTLPNDFDYWGQGTQVTVSS” the “polyreactivity (PSR sort gate)” value was “high polyreactivity”. In the case of “QVQLVESGGGLVQAGCSLRLSCAASGSTFPYNTMGWYRQAPGKERELVAAITSSAGSTYYADSVKGRFTISRDNAKNTVYLQMNSLKPDDTAVYYCAADYIVWKGSNSYYYAGYYYWGQGTQVTVSS”, the “polyreactivity (PSR sort gate)” value is reported as “low polyreactivity”. With “QVQLVESGGGLVQAGCSLRLSCAASGSTFRWYAMGWYRPAPGKEREFVAAITSSGGSTYYADSVKGRFTISRDNAKNTVYLQMNSLKPEDTAVYYCNRRYQPYSYDYWGQGTQVTVSS” the “polyreactivity (PSR sort gate)” value was “high polyreactivity”. With “QVQLVESGGGLVQAGCSLRLSCAATGFIFKRNAMGWYRQAPGKERELVAAITKSGVNSYYADSVKGRFTISRDNAKNTVYLLMNSLKPEDTAVYYCAARGNRKQAWYKYNYCGQGTQVTVSS” the “polyreactivity (PSR sort gate)” value was “high polyreactivity”. In the case of “QVQLVESGGGLVQAGCSLRLSCAAYGSIFSYNAMGWYRQAPGKERELVASISWSGGRTFYADSVKGRFTISRDNAKNTVYLQMNSLKPEDTAVYYCAFRHYSTYYSRFGYWGQGTKVTVSS”, the “polyreactivity (PSR sort gate)” value is reported as “high polyreactivity”. With “QVQLVESGGGLVQAGCSLRLSCAPSGSTFKVNDMGWYRQAPGKERELVAAIDKSGGTTYYADSVKGRFTLSRDNAKNTVYYQMNSLKPEDTAVYYCAADVIYEMDYWGQGTQVTVSS” the “polyreactivity (PSR sort gate)” value was “low polyreactivity”. In the case of “QVQLVESGGGLVQAGCSLRLSCDASGRIFVTNAMGWYRQAPGKERELVAANSYRGGRTYYADSVKGRFTISRDNAKNTVYLQMNSLKPEDTAVYYCNAVTRWPFDYWGQGTQVTVSS”, the “polyreactivity (PSR sort gate)” value is reported as “high polyreactivity”. For “QVQLVESGGGLVQAGCSLRLSCSASGRIFGYYAKGWYRQAPGKERELVARISGRGGSTYYADSVKVRFSISRDNAQKTVILQMNSLNPEDTAVYYCNVVLSFWKYYAYDQGDYWGQGTQVTVSS”, the “polyreactivity (PSR sort gate)” value was “low polyreactivity”. With “QVQLVESGGGLVQAGCSLRLSPASGSTLAGNTMGWYRQAPGKERELVAAINDSGGSTYYADSVKGRFTISRDNAKNSVNLQMNSLKPEDTGVYYCNADGSAYIEDGYDYWGQGTQVTVSS” the “polyreactivity (PSR sort gate)” value was “low polyreactivity”. For “QVQLVESGGGLVQAGCSLRLSSAASGSTFLGYAMGWYRQAPGKERELVAAITYSAGSTYYADSVKGRFTISRDNAKNTVYLQMNSLKPEDTAVYYCSKRYSGYDHWGQGTQVTVSS”, the “polyreactivity (PSR sort gate)” value was “low polyreactivity”. For “QVQLVESGGGLVQAGCSLRLTCAASGSTFKKYAKGWYRQAPGKERDFVAAISRGGRTYYAYSVKGRFTISRDNAKNTVYLQMNSLKPEDTAVYYCAAETFGYQEVYFWGQGTQVTVSS”, the “polyreactivity (PSR sort gate)” value was “high polyreactivity”. With “QVQLVESGGGLVQAGCSLSLSCAASGITFRSYAKGWYRQAPGKERELVAAIRSGGSTSYADSVKGRFTISRDNAKYTVYLQMNSLKPEDTAVYYCAAGGYVPLPDITFWKFGYWGQGTQGTVSS” the “polyreactivity (PSR sort gate)” value was “low polyreactivity”. With “QVQLVESGGGLVQAGCSLSLSCAASGSIFGRYTMGWYRQAPGKERELVAAINLRGGSTYYADSVKGRFTISRDNAKNTVYLQMNSLKPEDTAVYYCATVGWKQSAYDYWGQGTQVTVSS” the “polyreactivity (PSR sort gate)” value was “low polyreactivity”. In the case of “QVQLVESGGGLVQAGCSRRLSCAASGSIFYHNAMGWYRQAPGKERELVAAISGRGGSTYYADSVKGRFTISRDNAKNTVYLQMNSLKPEDTAVYYCAADARYQNGGLYYWGQGPQVTVSS”, the “polyreactivity (PSR sort gate)” value is reported as “high polyreactivity”. With “QVQLVESGGGLVQAGCTLRISCAPSGSIFVYNDMGWSRQAPGKERELVASISNGDNTNYADSVKGRFTISRDNAKNTVYLQMNSLKPEDTAVYYCAADGYIGSVVAYGERDYWGQGTQVTVSS” the “polyreactivity (PSR sort gate)” value was “low polyreactivity”. For “QVQLVESGGGLVQAGDSLRLICAASGFIFDNYAMGWYRQAPGKERELVAAISQSGTSTYYADSVKVRFTISRDIAKNTVYLQLISLKPEDTAVYYCNVVPTGVHIFDYWGQGTQVTVSS”, the “polyreactivity (PSR sort gate)” value was “low polyreactivity”. In the case of “QVQLVESGGGLVQAGFSLRLSCAASGSILGSYVMGWCRQAPGKESELVAASSYSTSATYYADSVKGRFTISRDNAKNTVYLQMNSLKPEDPAVYYCNADLGSWYTWYDDWGQGTQVTVSS”, the “polyreactivity (PSR sort gate)” value is reported as “high polyreactivity”. In the case of “QVQLVESGGGLVQAGGCLRLSCAASGFIFSKNVMGWYRQAPGTERELVARITRSGGTTNYADSVKGRFTISRDNAKNTVYLQMNSLNPGDTAVYFCAARGYGYTSITWYDYWGQGTQVTVSS”, the “polyreactivity (PSR sort gate)” value is reported as “high polyreactivity”. In the case of “QVQLVESGGGLVQAGGCLRLSCAGSRSTFHYYTMGWYRQAPGKERELVAAISWRGTSTYYADSVKGRFTISRDNAKNTLYVQMNSLKPEDTGVYYCAVRSSPGAGYYYWGQGTQGTVSS”, the “polyreactivity (PSR sort gate)” value is reported as “high polyreactivity”. In the case of “QVQLVESGGGLVQAGGGLRLSCAASGRIFAGYAMGWYRQAPGKEREFVAAISRSGVSTYYADSVKGRFTISRDNAKNTVYLQMNSLKPEDTAVYYCNVYKGNVVEHDYWGQGTQVTVSS”, the “polyreactivity (PSR sort gate)” value is reported as “high polyreactivity”. With “QVQLVESGGGLVQAGGILLLSCAASRRIFGVYAMGWYIQAPGKERELVATIRSSGTRKNYADSLKGRFTISRDNAKNTVYLQLNSLKPEDTAVYYCAAGGRPYKLDFTRSDYWGHGTQVTVSS” the “polyreactivity (PSR sort gate)” value was “low polyreactivity”. In the case of “QVQLVESGGGLVQAGGILRLRCAASGSTYGYYAMGWSRQAPGKERELVAAISGSGGRTYYADSVKGRFTISRDNAKNTVYLQMNSLKPEDTAVYYCNTATKNIYDYCGQGTQVTVSS”, the “polyreactivity (PSR sort gate)” value is reported as “high polyreactivity”. For “QVQLVESGGGLVQAGGILRLSCAASGFIFRDYAMGWYRQAPGKERELVAAISFTDGTTYYADSVKGRFTISRDNAKNTVYLQMNSLKPEDTAVYYCAAGYTGYTYTELDYWGQGTQVTVSS”, the “polyreactivity (PSR sort gate)” value was “low polyreactivity”. In the case of “QVQLVESGGGLVQAGGILRLSCAASGFIFYHYAMGWYRQAPGKERELVASITSGGRTYYADSVKGRFTISRDNAKNTVSLQMNRLKPEDTAVYYCAAAYYYYSSPRFTTGMDYWGQGTQVTVSS”, the “polyreactivity (PSR sort gate)” value is reported as “high polyreactivity”. In the case of “QVQLVESGGGLVQAGGILRLSCAASGFTFGLYAMGWYRQAPGTERELVAAIRNNGGSTYYADSVKGRFTISRDNAKNTVYLQMNSLKPDDTAVYYCAKKSFFTGRWWYDYWGQGTQVSVSS”, the “polyreactivity (PSR sort gate)” value is reported as “high polyreactivity”. In the case of “QVQLVESGGGLVQAGGILRLSCAASGFTFKANAMGWYRQAPGKERELVAAISRRGSSTYYADSVKGRFTISRDNAKNTVYLQMNSLKPEDTAVYYCNTKPRAGRTKLGYWGQGTQVTVSS”, the “polyreactivity (PSR sort gate)” value is reported as “high polyreactivity”. In the case of “QVQLVESGGGLVQAGGILRLSCAASGFTFNNYAMGWYRQAPGKERELVAAISSGAGTYYAESVKGRFTISRDNAKNTVYLQMNSLKPEDTGVYYCNASLKYQGRTRITYRHDYCGQGTQVTVSS”, the “polyreactivity (PSR sort gate)” value is reported as “low polyreactivity”. With “QVQLVESGGGLVQAGGILRLSCAASGGIFADYAMGWYRQAPGKERELVADISARGGSTYYADSVKGRFTISRDNAKNTVYLQMNSLKPEDTAVYYCAADALGYDYYYWGQGTQVTVSS” the “polyreactivity (PSR sort gate)” value was “low polyreactivity”. In the case of “QVQLVESGGGLVQAGGILRLSCAASGIIFGPNAMGWYRQAPGKERELVAAITSGGRTYYADSVKGRFTISRDNAKNTVYLHMNSLKPEDTAVYYCAARVWSWRSKYDYWGQGTQVTVSS”, the “polyreactivity (PSR sort gate)” value is reported as “high polyreactivity”. In the case of “QVQLVESGGGLVQAGGILRLSCAASGIISYDYDMGWYRPSPGKERELVAAISTSGGTTYYADSVKGRFTISRDNAKNTVYLQMNSLKPEDTAVYYCAADNYVGYHWYNYWGQGTQVTVSS”, the “polyreactivity (PSR sort gate)” value is reported as “high polyreactivity”.
